B1: TCN-533 (5256_A17a) (antibody, V domains shown)
VH: QVQLVQSGADVKKPGSSVTVSCKASGGSFSNYGINWVRQAPGQGLEWMGGIIPLINAPNYAPKFQGRVTITADMFSNIVSLQLTSLRTDDTAVYYCARRKMTTAIDYWGQGTLVTVSS
VL: QPVLTQPPSASASLGASVTLTCTLSSAYSNYKVDWYQQRPGKGPRFVMRVGTGGIVGSKGDGIPDRFSVLGSGLNRYLTIKNIQEEDESDYHCGADHGSGSNFVSPYVFGGGTKLTVL
B2: TCN-533 (5256_A17a) (antibody, V domains shown)
VH: B1 VH
VL: B1 VL
B3: TCN-533 (5256_A17a) (antibody, V domains shown)
VH: B1 VH
VL: B1 VL
B4: TCN-560 (5084_P10) (antibody, V domains shown)
VH: EVQLVESGGGLVQPGGSLRLSCAASGFIFRNYWMSWVRQAPGKGLEWVANIKQDGREKYYVDSLRGRVNISRDNAENSLYLHMNSLRVEDTAVYFCARARMVVVTGDGFDVWGHGTMVTVSS
VL: DIQMTQSPSSLSASVGDRVTITCRASQNIKRYFNWYQQKPGKAPKLLIYAASNLENGVPSRFSGSGSGTDFTLTISSLQPEDFATYYCQQSFSKSWTFGQGTNVDIK
B5: TCN-556 (5089_K12) (antibody, V domains shown)
VH: QVQLVQSGAEVKKPGASVKVSCKASGYTFIGYDMHWVRQAPGQGLEWMGWINAKRGGTNYAQKFQGRVTMTRDTSISTAYMELNSLRSDDTAVYYCARGVGSRTTIFGVLNPEFDYWGQGTLVTVSS
VL: QSALTQPPSASGSPGQSVTISCTGSSSDVGGYDYVSWYQQHPGKAPKLLIYEVTKRPSGVPDRFSGSKSGNTASLTVSGLQAEDEADYYCSSYAGNYNHVFGPGTKVTVL
B6: TCN-556 (5089_K12) (antibody, V domains shown)
VH: B5 VH
VL: B5 VL

Legend:
[1] = target: recombinant soluble homotrimeric HA of A/common magpie/Hong Kong/5052/07 (H5N1) (Influenza A virus A/common magpie/Hong …); test: trimeric HA microarray, transfection supernatant set 3
[2] = target: recombinant soluble homotrimeric HA of A/common magpie/Hong Kong/5052/07 (H5N1) (Influenza A virus A/common magpie/Hong …); test: HA microarray, BCC supernatant
[3] = target: recombinant homotrimeric HA A/common magpie/Hong Kong/5052/07 H5N1 (Influenza A virus A/common magpie/Hong …); test: protein microarray, purified IgG, trimeric HA
[4] = target: recombinant soluble homotrimeric HA, A/common magpie/Hong Kong/5052/07 H5N1 (Influenza A virus A/common magpie/Hong …); test: microarray, transfection SN IgG, trimeric HA

| Binder | Trimeric HA Binding: RLU [3] [RLU] | Trimeric HA Binding: RLU [4] [RLU] | also measured |
| --- | --- | --- | --- |
| B1 | – | – | Trimeric HA Binding: RLU [1]: 25200 RLU |
| B2 | – | – | Trimeric HA Binding: RLU [2]: 44500 RLU |
| B3 | 19000 | – | – |
| B4 | – | 30500 | – |
| B5 | – | 20100 | – |
| B6 | 25600 | – | – |
